{"source": "patent US20220340675A1", "about": "(CELGENE, published 2022)", "key": {"[1]": {"target": "T1, human CD47 expressed on the cell surface (human, UniProt Q08722 19-323)", "assay": "cell-based or functional assay"}, "[2]": {"target": "T2, CD20 on cells (Raji cells, human B cells) (human, UniProt P11836 1-297)", "T2 construct": "whole, on cells; The cells that carry it (Raji, B cells) also carry CD47", "T2 sequence (looked up)": "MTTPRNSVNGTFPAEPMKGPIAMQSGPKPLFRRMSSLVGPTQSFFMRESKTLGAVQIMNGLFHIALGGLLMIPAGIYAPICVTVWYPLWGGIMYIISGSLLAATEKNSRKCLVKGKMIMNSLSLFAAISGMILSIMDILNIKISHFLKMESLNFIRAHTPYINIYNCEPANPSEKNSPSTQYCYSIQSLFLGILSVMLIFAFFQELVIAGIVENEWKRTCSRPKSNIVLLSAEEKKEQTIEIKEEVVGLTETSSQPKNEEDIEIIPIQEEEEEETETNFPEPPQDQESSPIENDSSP", "assay": "binding to Raji cells (CD20+/CD47+), FIG. 17"}, "[3]": {"target": "T1, human CD47 expressed on the cell surface", "assay": "blocking of human SIRPα binding to OCI-Ly3 cells (FIG. 21)"}}}
{"binder": "TPP-1360 (bispecific antibody, human IgG1, kappa) light 1: NIQMTQSPSSLSASVGDRVTITCRASQDIHRYLSWFQQKPGKVPKHLIYRESRFVDGVPSRFSGSGSGTEFTLTISSLQPEDFATYYCLQYDEFPYTFGGGTKVEIKRTVAAPSVFIFPPSDEELKSGTASVVCWLNNFYPREAKVQWKVDNALQSGNSEESVTEQDSKDSTYSLSSTLELSKADYEKHKVYACEVTHQGLSSPVTKSFNRGEC heavy 1: QMQLVQSGAEVKKPGSSVKVSCKASGFNIKDYYLHWVRQAPGKGLEWMGWIDPDQGDTYYAQKFQGRVTITRDRSTSTAYMELRSLRAEDTAVYYCNAAYGESSYPMDYWGQGTLVTVSSASTKGPSVFPLAPSSKSTSGGTAALGCLVKDYFPEPVTVSWNSGALTSGVHTFPAVLKSSGLYSLSSVVTVPSSSLGTQTYICNVNHKPSNTKVDKKVEPKSCDKTHTCPPCPAPELLGGPSVFLFPPKPKDTLMISRTPEVTCVVVDVSHEDPEVKFNWYVDGVEVHNAKTKPREEQYNSTYRVVSVLTVLHQDWLNGKEYKCKVSNKALPAPIEKTISKAKGQPREPQVYVLPPSREEMTKNQVSLLCLVKGFYPSDIAVEWESNGQPENNYLTWPPVLDSDGSFFLYSKLTVDKSRWQQGNVFSCSVMHEALHNHYTQKSLSLSPGK light 2: QIVLSQSPAILSASPGEKVTMTCRASSSVSYIHWFQQKPGSSPKPWIYATSNLASGVPVRFSGSGSGTSYSLTISRVEAEDAATYYCQQWTSNPPTFGGGTKLEIKRTVAAPSVAIFPPSDERLKSGTASVVCVLNNFYPREAKVQWKVDNALQSGNSQESVTEQDSKDSTYSLSSRLTLSKADYEKHKVYACEVTHQGLSSPVTKSFNRGEC heavy 2: QVQLQQPGAELVKPGASVKMSCKASGYTFTSYNMHWVKQTPGRGLEWIGAIYPGNGDTSYNQKFKGKATLTADKSSSTAYMQLSSLTSEDSAVYYCARSTYYGGDWYFNVWGAGTTVTVSAASTKGPSVFPLAPSSKSTSGGTAWLGCEVTDYFPEPVTVSWNSGALTSGVHTFPAVLESSGLYSLSSVVTVPSSSLGTQTYICNVNHKPSNTKVDKKVEPKSCDKTHTCPPCPAPELLGGPSVFLFPPKPKDTLMISRTPEVTCVVVDVSHEDPEVKFNWYVDGVEVHNAKTKPREEQYNSTYRVVSVLTVLHQDWLNGKEYKCKVSNKALPAPIEKTISKAKGQPREPQVYVYPPSREEMTKNQVSLTCLVKGFYPSDIAVEWESNGQPENNYKTTPPVLDSDGSFALVSKLTVDKSRWQQGNVFSCSVMHEALHNHYTQKSLSLSPGK", "values": [{"measurement": "EC50, activation of macrophage phagocytosis of OCI-Ly3 cells", "setting": "[1]", "result": 1.4, "unit": "nM"}, {"measurement": "EC50, activation of macrophage phagocytosis of Raji cells", "setting": "[1]", "result": 1.8, "unit": "nM"}]}
{"binder": "rituximab (antibody, human IgG1, kappa, V domains shown, Anti-CD20 antibody, bivalent to CD20; also called rituxan) VH: QVQLQQPGAELVKPGASVKMSCKASGYTFTSYNMHWVKQTPGRGLEWIGAIYPGNGDTSYNQKFKGKATLTADKSSSTAYMQLSSLTSEDSAVYYCARSTYYGGDWYFNVWGAGTTVTVSA VL: QIVLSQSPAILSASPGEKVTMTCRASSSVSYIHWFQQKPGSSPKPWIYATSNLASGVPVRFSGSGSGTSYSLTISRVEAEDAATYYCQQWTSNPPTFGGGTKLEIKR", "values": [{"measurement": "EC50", "setting": "[2]", "result": "~1.1", "unit": "nM"}]}
{"binder": "TPP-23 (408_437 Fab with IgG1) (antibody, V domains shown, also called parental CD47 mAb) VH: QMQLVQSGAEVKKPGSSVKVSCKASGFNIKDYYLHWVRQAPGKGLEWMGWIDPDQGDTEYAQKFQGRVTITRDRSTSTAYMELRSLRAEDTAVYYCNAAYGSSSYPMDYWGQGTLVTVSS VL: NIQMTQSPSSLSASVGDRVTITCRASQDIHRYLSWFQQKPGKVPKHLIYRANRLVSGVPSRFSGSGSGTEFTLTISSLQPEDFATYYCLQYDEFPYTFGGGTKVEIK", "values": [{"measurement": "EC50", "setting": "[3]", "result": 0.11, "unit": "nM"}]}
